The supplement of paper PMC7125110
± gives the standard error. For some assays here: This sample holds only a part of the variants without activity.

B1: glmS ribozyme (parent)
chain: AUAAAAGCGCCAGAACUACAGAAAUGUAGUUGACGAGGAGGAGGUUUAUCGAAUUUUCGGCGGAUGCCUCCAAA

Experiments:
Details in all cases: with glucosamine-6-phosphate
[1] = variants of: B1; assay: kcat; higher = faster cleavage; RNA array
Procedure, shortened: (§1)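 On sequenced MiSeq chips, barcoded ribozyme variants were made in situ by E. coli RNA polymerase and followed at 37 °C through a hybridised Cy3 probe. Glucosamine-6-phosphate was flowed in at 40 μM to 10 mM in HEPES/KCl/Mg(OAc)2 buffer. Exponential fits to normalised per-tile medians gave kobs, and weighted Michaelis–Menten fits gave kcat and KM.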

[2] = variants of: B1; assay: KM; higher = weaker cofactor use; RNA array
Procedure, shortened: as §1

[3] = variants of: B1; assay: self-cleavage kobs at 40 uM GlcN6P; higher = faster cleavage; RNA array
Procedure, shortened: as §1

[4] = variants of: B1; assay: self-cleavage kobs at 160 uM GlcN6P; higher = faster cleavage; RNA array
Procedure, shortened: as §1

[5] = variants of: B1; assay: self-cleavage kobs at 640 uM GlcN6P; higher = faster cleavage; RNA array
Procedure, shortened: as §1

[6] = variants of: B1; assay: self-cleavage kobs at 2500 uM GlcN6P; higher = faster cleavage; RNA array
Procedure, shortened: as §1

[7] = variants of: B1; assay: self-cleavage kobs at 10000 uM GlcN6P; higher = faster cleavage; RNA array
Procedure, shortened: as §1

Row | Variant | kcat [1] [s⁻¹] | KM [2] [µM] | self-cleavage kobs at 40 uM GlcN6P [3] [s⁻¹] | self-cleavage kobs at 160 uM GlcN6P [4] [s⁻¹] | self-cleavage kobs at 640 uM GlcN6P [5] [s⁻¹] | self-cleavage kobs at 2500 uM GlcN6P [6] [s⁻¹] | self-cleavage kobs at 10000 uM GlcN6P [7] [s⁻¹]
1 | G32A G59U | 1.15e-05 ± 1.2e-06 | 3350 ± 1300 |  |  |  |  | 
2 | U46A C68U | 0.00114 ± 0.00016 | 2350 ± 540 | 3.61e-05 ± 1.2e-05 | 6.77e-05 ± 1.1e-05 | 0.000233 ± 3.5e-05 | 0.000743 ± 0.00014 | 0.0009 ± 8.7e-05
3 | A42C U55A | 1.17e-05 ± 4.9e-06 |  |  |  |  |  | 
4 | G32C U69C | 3.02e-05 ± 3.3e-06 |  |  |  | 3.47e-05 ± 1.7e-05 | 3.15e-05 ± 1.3e-05 | 2.58e-05 ± 1.2e-05
5 | U31G C71G | 0.000461 ± 0.0001 | 408 ± 180 | 5.48e-05 ± 1.3e-05 | 0.000111 ± 2.7e-05 |  | 0.000329 ± 7.1e-05 | 0.000555 ± 9.7e-05
6 | A36U U49G | 2.84e-05 ± 1.2e-05 |  | < 1e-05 |  |  | 3.43e-05 ± 1.7e-05 | 
7 | G44U A53C | 0.000114 ± 1.6e-05 | 1360 ± 610 |  |  |  | 8.9e-05 ± 1.7e-05 | 9.5e-05 ± 1.6e-05
8 | C8A G37C | < 1e-05 |  |  | < 1e-05 | < 1e-05 |  | 
9 | A6C C50G | 2.11e-05 ± 7.4e-06 |  |  |  |  |  | 
10 | C16U U65G | 0.0044 ± 0.00062 | 4300 ± 840 | 5.04e-05 ± 6.5e-06 | 0.000151 ± 1.7e-05 | 0.000544 ± 7.2e-05 | 0.00147 ± 0.00018 | 0.0032 ± 0.00028
11 | A33U U55G | 0.000103 ± 1e-05 | 1990 ± 570 |  |  | 3.4e-05 ± 1.3e-05 | 5.38e-05 ± 7.7e-06 | 8.77e-05 ± 1e-05
12 | U30A U45A C50U | < 1e-05 |  |  | < 1e-05 |  |  | 
13 | C11A C71G | 5.67e-05 ± 6.5e-06 |  |  |  |  | 4.99e-05 ± 1.2e-05 | 5.95e-05 ± 1.3e-05
14 | G40U G66U | 6.98e-05 ± 5.6e-06 | 2030 ± 510 |  |  | 2.07e-05 ± 8.1e-06 | 3.54e-05 ± 7.3e-06 | 5.9e-05 ± 7.2e-06
15 | A12C C50A C68G | 2.56e-05 ± 8.7e-06 |  |  |  |  |  | 
16 | A15C U46G | 0.00166 ± 0.00022 | 3240 ± 690 |  | 8.08e-05 ± 2.2e-05 | 0.000271 ± 4.6e-05 | 0.000681 ± 0.00011 | 0.00129 ± 0.00019
17 | G51A C67A | 1.27e-05 ± 2.8e-06 |  |  |  |  |  | 
18 | A15C G32C A53C | 2.15e-05 ± 1.1e-06 |  |  |  |  |  | 
19 | C10A G60U | 0.000974 ± 0.00015 | 1660 ± 470 | 3.82e-05 ± 7.9e-06 | 8.97e-05 ± 1.6e-05 | 0.000243 ± 3.1e-05 | 0.000514 ± 8.6e-05 | 0.000886 ± 8.3e-05
20 | C61G U69A | 2.83e-05 ± 3.9e-06 |  |  |  |  |  | 

Row | Variant | kcat [1] [s⁻¹] | KM [2] [µM] | self-cleavage kobs at 40 uM GlcN6P [3] [s⁻¹] | self-cleavage kobs at 160 uM GlcN6P [4] [s⁻¹] | self-cleavage kobs at 640 uM GlcN6P [5] [s⁻¹] | self-cleavage kobs at 2500 uM GlcN6P [6] [s⁻¹] | self-cleavage kobs at 10000 uM GlcN6P [7] [s⁻¹]
21 | A33G C58G | < 1e-05 |  |  |  |  |  | < 1e-05
22 | G32C U45A | 0.000238 ± 2.8e-05 | 3690 ± 1000 |  |  | 2.9e-05 ± 1.3e-05 | 0.000113 ± 2.7e-05 | 0.000171 ± 2.3e-05
23 | G41C C71A | 0.000115 ± 2e-05 |  |  |  | 5.78e-05 ± 1.1e-05 | 0.000181 ± 2.7e-05 | 0.000103 ± 8.1e-06
24 | A15C A42U | 1.58e-05 ± 3.7e-06 |  | < 1e-05 | < 1e-05 |  |  | 
25 | U31A U69A | 0.000105 ± 2.5e-05 |  |  | 7.05e-05 ± 1.9e-05 | 7.66e-05 ± 2.3e-05 | 0.000163 ± 2.9e-05 | 7.86e-05 ± 2.1e-05
26 | C70A C71A | 5.3e-05 ± 3.2e-06 | 181 ± 74 |  |  | 4.65e-05 ± 9.4e-06 | 4.82e-05 ± 7.4e-06 | 5.11e-05 ± 9.4e-06
27 | A53G C68A | 5.55e-05 ± 7.9e-06 |  |  | 5.86e-05 ± 1.5e-05 | 6.08e-05 ± 1.2e-05 | 6.36e-05 ± 1e-05 | 4.54e-05 ± 7.8e-06
28 | A14C U57A | 0.00019 ± 1.7e-05 |  |  |  |  | 3.61e-05 ± 1.6e-05 | 9.25e-05 ± 2.2e-05
29 | A15G A36G | 1.79e-05 ± 1.6e-07 | 8450 ± 150 |  |  |  |  | 
30 | C11A U55G | 0.000167 ± 5.3e-05 |  |  |  | 3.28e-05 ± 1.1e-05 | 0.000159 ± 2.4e-05 | 0.000125 ± 2.1e-05
31 | U49G C71G | 7.69e-05 ± 4.8e-06 | 427 ± 120 |  |  | 4.8e-05 ± 8.8e-06 | 6.83e-05 ± 1.3e-05 | 7.21e-05 ± 9.4e-06
32 | C58U C68U | 6.04e-05 ± 7.7e-06 | 2460 ± 1000 |  |  |  | 2.71e-05 ± 8.5e-06 | 4.92e-05 ± 7.3e-06
33 | G37U | < 1e-05 |  |  |  |  | < 1e-05 | < 1e-05
34 | U30A A48C | 9.77e-05 ± 4.8e-06 |  |  |  |  |  | 4.29e-05 ± 8.1e-06
35 | U57C C71G | 1.18e-05 ± 1.2e-06 |  | < 1e-05 |  |  |  | 
36 | U46A C67G | 0.000319 ± 2.1e-05 | 2290 ± 290 |  |  | 6.75e-05 ± 1.1e-05 | 0.000187 ± 3.5e-05 | 0.000254 ± 3.3e-05
37 | U56G C58G | 0.000173 ± 4.6e-06 | 1800 ± 110 |  |  | 4.42e-05 ± 1e-05 | 0.000103 ± 1.4e-05 | 0.000145 ± 2.1e-05
38 | A39G A52U | 0.00125 ± 0.00024 |  | < 1e-05 |  | 4.99e-05 ± 2.1e-05 | 0.000222 ± 4.6e-05 | 0.00054 ± 7.6e-05
39 | U47A C70G | 0.000131 ± 1.7e-05 |  |  | 9.75e-05 ± 2.2e-05 | 0.00011 ± 1.3e-05 |  | 0.000128 ± 2.5e-05
